Biological target: T1, FapR (Exiguobacterium antarcticum B7, UniProt A0ABT6QZ49 1-189)
T1 sequence: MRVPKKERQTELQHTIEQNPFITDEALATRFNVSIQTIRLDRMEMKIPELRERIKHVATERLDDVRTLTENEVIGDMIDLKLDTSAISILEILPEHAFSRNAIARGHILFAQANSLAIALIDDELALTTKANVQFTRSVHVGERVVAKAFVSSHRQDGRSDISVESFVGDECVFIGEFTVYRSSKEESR
Assay: EMSA; 2, 2.8, 3.8 and 4.5 uM protein; no shift; 10 mM Tris-HCl (pH not given), 0.2 mM DTT, 0.2 mM EDTA, 0.25 mM KCl (so in the source), 1 h on ice; 7.5% native PAGE, SYBR Safe stain
Conditions: protein: recombinant; (pET-46 Ek/LIC vector adds a His tag); chain copies: 2

B1: fapR-plsX-fabD-fabG promoter, synthesized up to the palindrome (dsDNA)
DNA 1: TACTTGAAAGTGAACAACAAGGGATATATACTACTATTAGTACCAGGTAATAA
DNA 2: TTATTACCTGGTACTAATAGTAGTATATATCCCTTGTTGTTCACTTTCAAGTA
Does B1 bind?
Result: no binding
